Assay results: patent publication US20040120943

Target: rabbit thrombomodulin (UniProt Q8HZ48)

Substance: variant thrombin W215A/E217A (WE)
- activity toward protein C on addition of thrombomodulin: the WE variant thrombin recovers almost its full activity toward protein C upon binding to thrombomodulin
